From patent US20210115124A1 (Genentech, published 2021) come the findings set out here.

Changes are numbered by the printed parent chain. Names and notes keep the numbering of the source.

Assay [1] addresses T1, human VEGF (hVEGF) (human, UniProt P15692 181-395).
T1 construct: also called VEGF-A
T1 sequence: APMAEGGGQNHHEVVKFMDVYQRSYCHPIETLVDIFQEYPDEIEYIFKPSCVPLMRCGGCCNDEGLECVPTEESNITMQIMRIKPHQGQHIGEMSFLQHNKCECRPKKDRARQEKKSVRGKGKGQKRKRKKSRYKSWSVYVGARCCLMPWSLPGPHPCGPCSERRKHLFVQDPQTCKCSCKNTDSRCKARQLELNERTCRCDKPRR
As to the kind of experiment: SPR.
From the text: (§1) To determine the binding affinity of selected Fab variants, SPR measurement with a BIACORE® T200 instrument was used. Briefly, series S sensor chip CM5 was activated with 1-ethyl-3-(3-dimethylaminopropyl) carbodiimide (EDC) and N-hydroxysuccinimide (NHS) reagents according to the supplier's instructions, and human VEGF (hVEGF) was coupled to achieve 50-80 response units (RU), then following by blocking un-reacted groups with 1M ethanolamine.
(§2) Three-fold serial dilutions of Fab in HBS-P buffer (0.01 M HEPES pH 7.4, 0.15 M NaCl, 0.005% surfactant P20) from low (0.02 nM) to high (50 nM) were injected (flow rate: 30 μl/min). The binding responses on hVEGF were corrected by subtracting of RU from a blank flow cell. The sensorgram was recorded and subject to reference and buffer subtraction before evaluating by BIACORE® T200 Evaluation Software (version 2.0). Association rates (kₒₙ) and dissociation rates (koff) were calculated using a simple one-to-one Langmuir binding model. The equilibrium dissociation constant (Kd) was calculated as the ratio koff/kₒₙ.

In assay [2] the target is T1, human VEGF (hVEGF). As to the kind of experiment: SPR. The source holds these as a separate data set. In general terms: In SPR one partner is held on a chip, and binding of the other changes the refractive index at the surface.
From the text: as §1, §2
Assay [3] deals with T1, human VEGF (hVEGF). The assay is described as follows: SPR single-cycle.
From the text: as §1, §2
Assay [4] has as its target T1, human VEGF (hVEGF). As to the kind of experiment: SPR. This is another data set of the same source.
From the text: as §1, §2
Assay [5] has as its target T1, human VEGF (hVEGF). As to the kind of experiment: SPR. This is another data set of the same source.
From the text: as §1, §2
The target of assay [6] is T1, human VEGF (hVEGF). As to the kind of experiment: SPR multiple-cycle.
From the text: as §1, §2

B1: G6.31 Y58R.N94A.F83A (Fab, name in Kabat numbering, V domains shown)
VH: EVQLVESGGGLVQPGGSLRLSCAASGFTISDYWIHWVRQAPGKGLEWVAGITPAGGYTRYADSVKGRFTISADTSKNTAYLQMNSLRAEDTAVYYCARFVFFLPYAMDYWGQGTLVTVSS
VL: DIQMTQSPSSLSASVGDRVTITCRASQDVSTAVAWYQQKPGKAPKLLIYSASFLYSGVPSRFSGSGSGTDFTLTISSLQPEDAATYYCQQGYGAPFTFGQGTKVEIK
notes: Fab
As usually defined, the Kd is the constant that tells how readily two partners part at equilibrium. The low end stands for higher affinity, the high end for lower affinity. As a reminder, the koff is a measure of how fast the partners let go of each other. Higher therefore signals a short-lived complex. The kon is the rate constant with which the complex forms. B1: in the assay with human VEGF (hVEGF) [1], the “Fold improved (relative to WT)” value was 3.9 fold, the Kd is 0.135 nM, the koff came to 0.000301 s⁻¹ and the kon worked out at 2.22e+06 M⁻¹ s⁻¹.

B2: G6.31 LC-F83A, LC-N94A, LC-T22D (Fab, name in Kabat numbering, V domains shown)
VH: B1 VH with R59Y
VL: B1 VL with T22D
notes: Fab
In the assay with human VEGF (hVEGF) [2], B2 had a Kd of 0.558 nM, a koff of 0.000744 s⁻¹ and a kon of 1.33e+06 M⁻¹ s⁻¹.

B3: G6.31 HC-A40E, HC-T57E, LC-F83A, LC-N94A, LC-T22D (Fab, name in Kabat numbering, V domains shown)
VH: B1 VH with A40E, T58E, R59Y
VL: B1 VL with T22D
notes: Fab
Regarding B3, in the assay with human VEGF (hVEGF) [2], the Kd is 0.597 nM, the koff worked out at 0.000718 s⁻¹ and the kon was found to be 1.2e+06 M⁻¹ s⁻¹.

B4: G6.31 LC-T97N (Fab, V domains shown)
VH: B1 VH with R59Y
VL: B1 VL with A83F, A94N, T97N
notes: Fab
With B4, in the assay with human VEGF (hVEGF) [3], the “Fold difference (relative to G6.31)” value is 0.8 fold, the Kd worked out at 1.86 nM, the koff is 0.000802 s⁻¹ and the kon was 432000 M⁻¹ s⁻¹.

B5: LCcombo2 (G6.31 WT VH with LCcombo2 VL) (Fab, V domains shown)
VH: B1 VH with R59Y
VL: B1 VL with R18E, K42E, S76E
notes: Fab
As to B5, in the assay with human VEGF (hVEGF) [4], binding was characterised by a dissociation constant (Kd) of 1.11 nM, the koff turned out to be 0.000667 s⁻¹ and the kon turned out to be 599000 M⁻¹ s⁻¹.

B6: HCcombo (Fab, V domains shown)
VH: EEQLVEEGGGLVQPGESLELSCAASGFEISDYWIHWVRQEPGEGLEWVAGITPAGGYEYYADSVEGRFTISADTSENTAYLQMNELRAEDTAVYYCARFVFFLPYAMDYWGQGELVTVSS
VL: B1 VL with A83F, A94N
notes: Fab
In the assay with human VEGF (hVEGF) [4], B6 yielded a Kd of 0.134 nM, a koff of 0.000274 s⁻¹ and a kon of 2.05e+06 M⁻¹ s⁻¹. In the assay with human VEGF (hVEGF) [5], this molecule came in with a Kd of 0.134 nM, a koff of 0.000274 s⁻¹ and a kon of 2.05e+06 M⁻¹ s⁻¹.

B7: G6.31 LC-Q37A (Fab, V domains shown)
VH: B1 VH with R59Y
VL: B1 VL with Q37A, A83F, A94N
notes: Fab
Take B7: in the assay with human VEGF (hVEGF) [3], the “Fold difference (relative to G6.31)” value was found to be 1.8 fold, the Kd was determined as 0.85 nM, the koff amounted to 0.000515 s⁻¹ and the kon is 603000 M⁻¹ s⁻¹.

B8: LCcombo4 (G6.31 WT VH with LCcombo4 VL) (Fab, V domains shown)
VH: B1 VH with R59Y
VL: B1 VL with R18E
notes: Fab
In the assay with human VEGF (hVEGF) [4], B8 showed a Kd of 1.75 nM, a koff of 0.000808 s⁻¹ and a kon of 463000 M⁻¹ s⁻¹.

B9: G6.31 HC-Y58Q (Fab, name in Kabat numbering, V domains shown)
VH: B1 VH with R59Q
VL: B1 VL with A83F, A94N
notes: Fab
Turning to B9, in the assay with human VEGF (hVEGF) [3], the “Fold difference (relative to G6.31)” value was 1.5 fold, the Kd came to 1.02 nM, the koff was 0.000358 s⁻¹ and the kon worked out at 352000 M⁻¹ s⁻¹.

B10: G6.31 HC-Y59T (Fab, name in Kabat numbering, V domains shown)
VH: B1 VH with R59Y, Y60T
VL: B1 VL with A83F, A94N
notes: Fab
For the molecule B10, in the assay with human VEGF (hVEGF) [3], the “Fold difference (relative to G6.31)” value is 0.6 fold, binding was put at a Kd of 2.71 nM, the koff stood at 0.000974 s⁻¹ and the kon was 360000 M⁻¹ s⁻¹.

B11: G6.31 LC-N94Q (Fab, V domains shown)
VH: B1 VH with R59Y
VL: B1 VL with A83F, A94Q
notes: Fab
With B11, in the assay with human VEGF (hVEGF) [3], the “Fold difference (relative to G6.31)” value worked out at 0.3 fold, the Kd came out at 4.78 nM, the koff was 0.00133 s⁻¹ and the kon stood at 278000 M⁻¹ s⁻¹. Besides, in the assay with human VEGF (hVEGF) [6], the Kd worked out at 1.14 nM, the koff is 0.000362 s⁻¹ and the kon stood at 318000 M⁻¹ s⁻¹.

B12: G6.31 HC-T73N (Fab, name in Kabat numbering, V domains shown)
VH: B1 VH with R59Y, T74N
VL: B1 VL with A83F, A94N
notes: Fab
With B12, in the assay with human VEGF (hVEGF) [3], the “Fold difference (relative to G6.31)” value is 1.8 fold, binding was put at a Kd of 0.85 nM, the koff was found to be 0.000575 s⁻¹ and the kon is 678000 M⁻¹ s⁻¹.

B13: LCcombo1 (G6.31 WT VH with LCcombo1 VL) (Fab, V domains shown)
VH: B1 VH with R59Y
VL: B1 VL with S9E, R18E
notes: Fab
As for B13, in the assay with human VEGF (hVEGF) [4], the Kd came to 2.27 nM, the off-rate constant (koff) amounted to 0.00101 s⁻¹ and the kon came out at 447000 M⁻¹ s⁻¹.
